Experimental data as given in patent US7812117B2, “Vasostatin as marrow protectant” (The United States of America as represented by the …, priority 1998, dated 2010).
Like-named read-outs stand apart in the source and are kept apart here.

Columns and labels:
[1] = tested on: athymic BALB/c nu/nu mice
Method: (§1) Groups of 6-8 athymic BALB/c nu/nu mice, 6 weeks of age, were first irradiated with 400 rad, and 24 hr later were inoculated s.c. with 8×10^6 Burkitt lymphoma cells (CA46 cell line). Beginning 24 hr after cell inoculation, one group (n=6) of mice received daily s.c. inoculations of buffer alone (100 μl); a second group (n=6) received daily s.c. inoculations of a fusion protein of maltose binding protein and vasostatin, MBP-vaso, alone (200 μg in 100 μl of buffer); a third group (n=8) received daily s.c. inoculations of buffer alone (100 μl) plus cyclophosphamide once on day 9 post cell inoculation (2.6 mg i.p. in 100 μl of buffer); a fourth group (n=8) received daily s.c. inoculations of vaso (200 μg in 100 μl of buffer) plus cyclophosphamide once on day 9 post cell inoculation (2.6 mg i.p. in 100 μl of buffer); a fifth group received daily s.c. inoculations of buffer alone (100 μl) plus daily i.p. inoculations of cyclophosphamide (260 μg/mouse in 100 μl of buffer); and a sixth group received daily s.c. inoculations of vaso (200 μg/mouse in 100 μl of buffer) plus daily i.p. inoculations of cyclophosphamide (260 μg/mouse in 100 μl of buffer).

[2] = tested on: femoral marrow hematopoietic cells
Method: as §1

[3] = tested on: Burkitt lymphoma cells (CA46 cell line); assay: Burkitt lymphoma CA46 tumor growth in athymic mice treated with vaso and/or cyclophosphamide; type: in vivo, human; settings: vaso 200 μg/day s.c., cyclophosphamide 260 μg/mouse/day i.p. for 26 days; for average tumor size: buffer control 5.85; for average tumor weight: buffer control 6.75
Method: as §1

[4] = tested on: bone marrow cells
Method: FIG. 2 is set of bar graphs showing of the effects of vaso on cytoxan-induced bone marrow toxicity evaluated by bone marrow cell counting. Bone marrow cells obtained from the femurs of mice treated with cytoxan alone or with vaso were counted. FIG. 2A is a bar graph of bone marrow cell counts 5 days after the injection of cytoxan (1 or 2 mg/mouse) alone or with vaso (300 μg/mouse/day). FIG. 2B is a bar graph of the bone marrow cell counts on days 3 and 5 after treatment with cytoxan (2 mg/mouse) alone or with vaso ([…]).
C57BL6J mice (7 weeks of age) were first treated for 7 days daily with either buffer (100 μl s.c.) or vaso (300 μg/mouse in 100 μl of buffer s.c.). On day 8, groups of mice (n=6) pretreated with either buffer or vaso were injected with cyclophosphamide (1.0 or 2.0 mg/mouse) and continued on daily inoculations of buffer (100 μl s.c.) or vaso (300 μg/mouse in 100 μl of buffer s.c.). Additional control mice were treated with only buffer or vaso for 5 additional days. On days 3 and 5 after cyclophosphamide injection, ½ of the mice were killed for evaluation of the bone marrow and peripheral blood.

[5] = tested on: bone marrow cells; remark: listed apart in the source
Method: Groups of C57BL/6 mice (8 weeks of age) were treated as described in FIG. 14. FIG. 4A is a bar graph of the bone marrow cell count from mice treated for 16 days with either buffer alone (PBS, 100 μl/mouse/day s.c), Vaso (300 μg/mouse/day s.c) alone, Cytoxan (500 μg/mouse/day i.p.) alone, or vaso (300 μg/mouse/day s.c) plus Cytoxan (500 μg/mouse/day i.p.). Bone marrow was harvested on days 9 and 17 and the number of nucleated cells were counted. FIG. 4B is a bar graph of the bone marrow cell count from mice treated with for 11 days with either buffer alone (PBS, 100 μl/mouse/day s.c), Vaso (300 μg/mouse/day s.c) alone, Cytoxan (250 μg/mouse/day i.p.)×11 days plus Cytoxan 2 mg/mouse i.p. on day 11, or Cytoxan ([…] s.c, days 1-16). Bone marrow cell counts were obtained on day 17. FIG. 4C is a bar graph of peripheral blood white cells counts (WBC) on day 17 from mice from the same treatment groups described in B. […]
(§2) In addition, rather than treating the mice with vaso prior to toxin exposure as described above, mice were simultaneously inoculated with cyclophosphamide and vaso. Thus, groups of mice (n=6) received either buffer alone (100 μl s.c) daily for 16 days, vaso (300 μg/mouse s.c) alone daily for 16 days, cyclophosphamide (500 μg/mouse i.p.) either alone or together with vaso (300 μg/mouse s.c) for 16 days. Other groups of mice (n=6) were inoculated daily for 11 days with cyclophosphamide (250 μg/mouse i.p.) either alone or together with vaso (300 μg/mouse s.c).

[6] = tested on: peripheral blood white cells
Method: Groups of C57BL/6 mice (8 weeks of age) were treated as described in FIG. 14. FIG. 4A is a bar graph of the bone marrow cell count from mice treated for 16 days with either buffer alone (PBS, 100 μl/mouse/day s.c), Vaso (300 μg/mouse/day s.c) alone, Cytoxan (500 μg/mouse/day i.p.) alone, or vaso (300 μg/mouse/day s.c) plus Cytoxan (500 μg/mouse/day i.p.). Bone marrow was harvested on days 9 and 17 and the number of nucleated cells were counted. FIG. 4B is a bar graph of the bone marrow cell count from mice treated with for 11 days with either buffer alone (PBS, 100 μl/mouse/day s.c), Vaso (300 μg/mouse/day s.c) alone, Cytoxan (250 μg/mouse/day i.p.)×11 days plus Cytoxan 2 mg/mouse i.p. on day 11, or Cytoxan (250 μg/mouse/day i.p.)×11 days plus Cytoxan 2 mg/mouse i.p. on day 11 plus Vaso (300 μg/mouse/day s.c, days 1-16). Bone marrow cell counts were obtained on day 17. FIG. 4C is a bar graph of peripheral blood white cells counts (WBC) on day 17 from mice from the same treatment groups described in B.
FIG. 14 is a schematic diagram of different treatment groups used in the studies described herein. • Group 1: Buffer alone (100 μl/mouse/day s.c)×16 days • Group 2: Vaso alone (300 μg/mouse/day s.c)×16 days • Group 3: Cyclophosphamide (500 μg/mouse/day i.p.)×16 days Group 4: Cyclophosphamide (500 μg/mouse/day i.p.)×16 days plus vaso (300 μg/mouse/day s.c)×16 days Group 5: Cyclophosphamide (250 μg/mouse/day i.p.)×11 days plus Cyclophosphamide 2 mg/mouse i.p. on day 11 Group 6: Cyclophosphamide (250 μg/mouse/day i.p.)×11 days plus Cyclophosphamide 2 mg/mouse i.p. on day 11 plus vaso (300 μg/mouse/day s.c) days 1-16.
as §2

[7] = same dose and regimen of cyclophosphamide plus vaso

## O=P1(N(CCCl)CCCl)NCCCO1 (centres unmarked) [cyclophosphamide, reference compound]
[1]; cyclophosphamide 260 μg/mouse i.p. daily for 26 days, alone
  mice alive on day 28: 8/8
[1]; cyclophosphamide 2.6 mg i.p. once on day 9 alone (daily buffer s.c.), 400 rad, CA46-inoculated, n=8
  mice alive on day 26: 0/8
[1]; cyclophosphamide 2.6 mg i.p. once on day 9 alone, n=8
  mice dead on day 13: 7 out of 8
[2]; cyclophosphamide only (260 μg/day, 26 days)
  histological appearance of femoral marrow: hypocellular and virtually depleted of hematopoietic cells
[3]
  average tumor size: 4.98 cm^2
  average tumor weight: 4.69 g
[4]; cyclophosphamide 2 mg/mouse alone, vs control untreated mice
  bone marrow cellularity 5 days after cyclophosphamide: clear reduction in cellularity
[4]; cyclophosphamide 1.0 or 2.0 mg/mouse, alone
  marrow cell counts 5 days after cyclophosphamide: reduced significantly marrow cell counts
[5]; cyclophosphamide 250 μg/mouse daily for 11 days then single 2 mg/mouse injection on day 12, alone
  bone marrow cell counts on day 17: considerable reduction of bone marrow cell counts
[5]; cytoxan 500 μg/mouse/day i.p. alone, vs PBS controls
  bone marrow cell counts on day 9: did not reduce bone marrow cell counts on day 9
[5]; cytoxan 500 μg/mouse/day i.p. for 16 days alone, vs PBS controls
  bone marrow cell counts on day 17: reduced them on day 17
[6]; cyclophosphamide 250 μg/mouse daily for 11 days then 2 mg/mouse on day 12, alone, vs untreated controls
  peripheral white blood cell counts on day 17: reduction in white blood cell counts
[6]; cyclophosphamide 250 μg/mouse daily for 11 days then 2 mg/mouse on day 12, alone, controls 10-17%
  average percent neutrophils on day 17: 13.4%
[6]; cyclophosphamide 250 μg/mouse daily for 11 days then 2 mg/mouse on day 12, alone, controls 72-83%
  average percent lymphocytes on day 17: 62%

B1: vaso: N-terminal domain of calreticulin (amino acids 1-180, SEQ ID NO:3); given as fusion protein with maltose binding protein, MBP-vaso (protein)
chain: EPAVYFKEQFLDGDGWTSRWIESKHKSDFGKFVLSSGKFYGDEEKDKGLQTSQDARFYALSASFEPFSNKGQTLVVQFTVKHEQNIDCGGGYVKLFPNSLDQTDMHGDSEYNIMFGPDICGPGTKKVHVIFNYKGKNVLINKDIRCKDDEFTHLYTLIVRPDNTYEVKIDNSQVESGSLE
modifications: Vasostatin
[1]; cyclophosphamide 260 μg/mouse i.p. daily in conjunction with vasostatin 200 μg/mouse s.c. daily
  mice alive on day 28: 8/8
[1]; surviving mice, high dose cyclophosphamide plus vaso, day 26
  gross and microscopic examination of liver, spleen, kidneys, heart, lung, lymph nodes and bone marrow: No abnormalities were noted
[1]; vaso 200 μg s.c. daily plus cyclophosphamide 2.6 mg i.p. once on day 9, n=8, p<0.0001 vs cyclophosphamide alone
  mice alive and well on day 26: 8/8
[1]; vasostatin alone 200 μg s.c. daily
  mice alive and well on day 28: 6/6
[2]; cyclophosphamide 260 μg/day plus vasostatin 200 μg/day, 26 days
  histological appearance of femoral marrow: indistinguishable from a normal control marrow
[3]
  average tumor size: 4.85 cm^2
  average tumor weight: 3.79 g
[4]; cyclophosphamide 2 mg/mouse in conjunction with vasostatin
  bone marrow cellularity 5 days after cyclophosphamide: indistinguishable from that of control mice
[4]; cyclophosphamide 2 mg/mouse with vaso 300 μg/mouse/day
  nadir in bone marrow counts on day 3 after cyclophosphamide: reduced the severity of this nadir
[4]; cyclophosphamide 1.0 or 2.0 mg/mouse together with vaso 300 μg/mouse/day s.c.
  bone marrow cell counts 5 days after cyclophosphamide: the reduction in bone marrow cell counts was minimal
[5]; Vaso 300 μg/mouse/day s.c. for 16 days with cyclophosphamide 250 μg/mouse daily for 11 days then 2 mg/mouse on day 12
  bone marrow cell counts on day 17: prevented the occurrence of a reduction in bone marrow cell counts
[5]; cyclophosphamide 500 μg/mouse/day i.p. plus vasostatin 300 μg/mouse/day s.c.
  bone marrow cell count on days 9 and 17: higher than in the control mice and in the mice treated with cytoxan
[6]; [7]
  average percent lymphocytes on day 17: 25%
  average percent neutrophils on day 17: 63%
[6]; vaso in conjunction with cyclophosphamide 250 μg/mouse daily for 11 days then 2 mg/mouse
  white blood cells in the circulation on day 17: significantly greater number of white blood cells
